Data taken from publication PMC4999211, “Amlexanox Blocks the Interaction between S100A4 and Epidermal Growth Factor and Inhibits Cell Proliferation” (PLoS ONE, 2016).

Biological target: T1, mutant S100A4 (C3S, C76S, C81S, C86S) (human, UniProt P26447 1-101, C3S | C76S | C81S | C86S)
T1 construct: human S100A4 with all four cysteines mutated to serines; residue numbers 1-101 in the HSQC bar graph; 15N-labelled where it was the observed protein in HSQC; No tag is named; also called mS100A4; quadruple mutant S100A4; source: E. coli BL21 (DE3), pET21b, purified (ammonium sulfate, Hi-Prep Q XL, Hi-Prep Phenyl FF, Superdex 75)
Experiment: other fluorescence titration; intrinsic tryptophan fluorescence of EGF (8 uM), excitation 295 nm, emission at 345 nm; mS100A4 added at 0-22 uM; double-reciprocal plot, one-site binding model
Conditions: both partners purified

T1 sequence (P26447 whole entry C3S/C76S/C81S/C86S, one chain of several): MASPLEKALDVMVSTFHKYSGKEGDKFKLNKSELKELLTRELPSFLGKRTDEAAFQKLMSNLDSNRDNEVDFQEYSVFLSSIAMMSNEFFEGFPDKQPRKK

Kd: 5.2 µM
B1: human epidermal growth factor (ligand, UniProt P01133 971-1023, looked up)
chain: NSDSECPLSHDGYCLHDGVCMYIEALDKYACNCVVGYIGERCQYRDLKWWELR
notes: human epidermal growth factor, the mature hormone cut from pro-EGF; three disulfide bonds; 15N-labelled where it was the observed protein in HSQC; also called EGF; recombinant EGF
